Source: patent US20040229366A1 (University of California, published 2004)

B1: SVPK (K-box region of SVP in prey vector pBI771) (other, not shown: small tags and cut ends)
chain: MSDHARMSKEIADKSHRLRQMRGEELQGLDIEELQQLEKALETGLTRVIETKSDKIMSEISELQKKG
notes: also called SVP K-box; K-box prey construct
B2: SEP3K (K-box region of SEP3 in prey vector pBI771) (other)
chain: SQQEYLKLKERYDALQRTQRNLLGEDLGPLSTKELESLERQLDSSLKQIRALRTQFMLDQLNDLQSK
notes: also called SEP3 K-box; K-box prey construct; not shown: fusion partner encoded by prey vector pBI771
B3: AGL24K (K-box region of AGL24 in prey vector pBI771) (other, not shown: small tags and cut ends)
chain: MLENCNLSRLSKEVEDKTKQLRKLRGEDLDGLNLEELQRLEKLLESGLSRVSEKKGECVMSQIFSLE
notes: also called AGL24 K-box; K-box prey construct
B4: SOC1K (K-box region of SOC1 in prey vector pBI771) (other, not shown: small tags and cut ends)
chain: MKYEAANMMKKIEQLEASKRKLLGEGIGTCSIEELQQIEQQLEKSVKCIRARKTQVFKEQIEQLKQKE
notes: also called SOC1 K-box; K-box prey construct
B5: AGL27 clone isolated in the AP1 two-hybrid screen (one clone) (other)
chain: MGRRKIEIKRIENKSSRQVTFSKRRNGLIDKARQLSILCESSVAVVVVSASGKLYDSSSGDDISKIIDRYEIQHADELRALDLEEKIQNYLPHKELLETVQSKLEEPNVDNVSVDSLISLEEQLETALSVSRARKAELMMEYIESLKEKEKLLREENQVLASQLSEKKGMSHR
notes: also called new MADS box gene designated AGL27; not shown: fusion partner encoded by prey vector pBI771
B6: shortest AGL24 clone from the CAL two-hybrid screen (other)
chain: EVEDKTKQLRKLRGEDLDGLNLEELQRLEKLLESGLSRVSEKKGECVMSQIFSLEKRGSELVDENKRLRDKLETLERAKLTTLKEALETESVTTNVSSYDSGTPLEDDSDTSLKLGLPSWE
notes: Lacks the MADS domain and I region; also called shortest clone of each class; shortest clones isolated in the screen; not shown: fusion partner encoded by prey vector pBI771

Columns and labels:
[1] = target: T1, bait vector (empty pBI-880, GAL4 (1-147) alone) (UniProt P04386 1-147); assay: yeast two-hybrid, K-box prey with empty bait
T1 construct: range 1-147; Negative control: bait vector without insert; also called empty bait
From the text: Previous studies have shown that the MADS-domain and I regions may be important for homodimer formation by AG and by AP1 (Krizek and Meyerowitz, 1996; Mizukami et al., 1996; Riechmann et al., 1996) and that the I region and K-domain are needed for the formation of AP3/PI heterodimers (Krizek and Meyerowitz, Proc. Natl. Acad. Sci. USA 93, 4063-4070 (1996); Riechmann et al., Proc. Natl. Acad. Sci. USA 93, 4793-4798 (1996)). In addition, the K-domain of AG is sufficient to promote interactions with SEP1, SEP2, SEP3 and AGL6 in yeast (Fan et al., Plant J. 11, 999-1010 (1997)). Since many of the CAL- and AP1-interacting clones isolated as part of our study lacked the MADS-domain and I regions, we tested if the K-domain itself was sufficient to promote the observed interactions. First, we subcloned the K-box regions of SEP3, SOC1, SVP and AGL24 into the prey vector, and tested their ability to activate the reporter using either the empty bait or the cruciferin gene cloned into the bait plasmid. […] However, other protein domains appear to enhance these interactions since the level of reporter gene activation is higher when larger constructs are used.

[2] = target: T2, CAL bait (GAL4 (1-147) fused to the intact CAL coding region in pBI-880) (Arabidopsis thaliana); assay: yeast two-hybrid with CAL bait
T2 construct: range 1-147; also called CAULIFLOWER; full-length CAL cDNA as bait
From the text: To confirm the specificity of these interactions, the longest clone of each class was transformed back into yeast with the AP1 bait, the bait vector, and an inert control bait, cruciferin. The strains containing the AP1 bait tested positive for both β-Gal activity and HIS prototrophy. The strains containing the bait vector or the cruciferin bait were negative in both assays. We then tested if the three new AP1-interacting clones could also interact with CAL, since they had not been isolated in the CAL library screen. However, AGL27, the RNA binding protein, and the novel protein were unable to interact with CAL in yeast.

[3] = target: T1, bait vector (empty pBI-880, GAL4 …); assay: yeast two-hybrid retest, B-Gal and HIS prototrophy
From the text: To confirm the specificity of the observed interactions, the longest and shortest clone of each class was transformed back into a yeast strain that contained either the CAL bait, the bait vector, or an inert control bait, cruciferin. The strains containing the CAL bait tested positive for both B-Gal activity and HIS prototrophy. The strains containing the bait vector or the cruciferin bait were negative in both assays, as they were not able to grow on plates lacking histidine and the yeast colonies were completely white in the B-Gal assay.

Binder | binding result [1] | other results
B1 | no binding | 
B2 | no binding | 
B3 | no binding | 
B4 | no binding | 
B5 |  | binding result [2]: no binding
B6 |  | binding result [3]: no binding
